Measurements: the supplement of paper PMC9112550, “Optimization of the antimicrobial peptide Bac7 by deep mutational scanning” (BMC Biology, 2022)

These sequences were tested on Escherichia coli TOP10 (assay: shrunken log2 fold change of peptide-encoding DNA abundance (4.5 h post-induction vs induction); higher = less antimicrobial activity (less host growth inhibition)). Settings: time post-induction: 4.5 h; library: site-saturation at positions 5, 18, 19, 20.
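Also: peptides expressed intracellularly from a pBAD plasmid library in pooled LB shake-flask culture, induced with 0.3% L-arabinose, DNA abundance read by NGS, three biological replicates, DESeq2 with apeglm shrinkage.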

Sequence | shrunken log2 fold change
RRIRWRPPRLPRPRPRPTKEPRP | 0.177
RRIRMRPPRLPRPRPRPERRPRP | 0.689
RRIRKRPPRLPRPRPRPSMNPRP | -0.00473
RRIRYRPPRLPRPRPRPMCHPRP | -0.0146
RRIRQRPPRLPRPRPRPLRRPRP | 2.24
RRIRTRPPRLPRPRPRPENQPRP | 0.0593
RRIRHRPPRLPRPRPRPWVKPRP | -0.0135
RRIRKRPPRLPRPRPRPYIWPRP | -0.126
RRIRVRPPRLPRPRPRPNNNPRP | -0.661
RRIRGRPPRLPRPRPRPVCEPRP | 1.06
RRIRPRPPRLPRPRPRPLKMPRP | -0.124
RRIRERPPRLPRPRPRPTQCPRP | -0.133
RRIRHRPPRLPRPRPRPISVPRP | -0.00149
RRIRNRPPRLPRPRPRPVTFPRP | -0.356
RRIRWRPPRLPRPRPRPTACPRP | 0.317
RRIRMRPPRLPRPRPRPPSAPRP | 1.2
RRIRNRPPRLPRPRPRPVESPRP | -0.165
RRIRYRPPRLPRPRPRPDNPPRP | -0.877
RRIRTRPPRLPRPRPRPHYFPRP | -0.914
RRIRARPPRLPRPRPRPAFPPRP | 0.532

Sequence | shrunken log2 fold change
RRIRDRPPRLPRPRPRPWRDPRP | -0.0505
RRIRKRPPRLPRPRPRPAQDPRP | 0.679
RRIRLRPPRLPRPRPRPGACPRP | 0.264
RRIRQRPPRLPRPRPRPQYQPRP | -1.46
RRIRWRPPRLPRPRPRPTWGPRP | 0.356
RRIRCRPPRLPRPRPRPCTKPRP | -0.507
RRIRFRPPRLPRPRPRPFSNPRP | 0.0406
RRIRLRPPRLPRPRPRPCGCPRP | 0.282
RRIRRRPPRLPRPRPRPNCTPRP | 0.00402
RRIRTRPPRLPRPRPRPSPDPRP | -0.331
RRIRMRPPRLPRPRPRPARPPRP | 1.09
RRIRNRPPRLPRPRPRPFMAPRP | -0.513
RRIRHRPPRLPRPRPRPWAAPRP | -0.0958
RRIRPRPPRLPRPRPRPVPWPRP | 0.548
RRIRDRPPRLPRPRPRPYFGPRP | -0.551
RRIRRRPPRLPRPRPRPQFHPRP | -0.133
RRIRHRPPRLPRPRPRPPHPPRP | 0.15
RRIRVRPPRLPRPRPRPGFEPRP | 0.554
RRIRRRPPRLPRPRPRPHADPRP | 0.573
RRIRERPPRLPRPRPRPPPYPRP | -0.231

Sequence | shrunken log2 fold change
RRIRKRPPRLPRPRPRPFVYPRP | -0.014
RRIRRRPPRLPRPRPRPVIIPRP | -0.106
RRIRKRPPRLPRPRPRPFSVPRP | 0.034
RRIRDRPPRLPRPRPRPRAFPRP | -0.2
RRIRVRPPRLPRPRPRPVVWPRP | 0.385
RRIRNRPPRLPRPRPRPYEFPRP | 0.121
RRIRDRPPRLPRPRPRPQQCPRP | -0.00965
RRIRKRPPRLPRPRPRPSQPPRP | 0.0235
RRIRHRPPRLPRPRPRPINEPRP | -0.99
RRIRIRPPRLPRPRPRPSLSPRP | -0.692
RRIRDRPPRLPRPRPRPCKTPRP | -0.0377
RRIRLRPPRLPRPRPRPHRVPRP | 0.0399
RRIRERPPRLPRPRPRPVKSPRP | -0.155
RRIRRRPPRLPRPRPRPFPAPRP | 0.731
RRIRKRPPRLPRPRPRPDNQPRP | -0.233
RRIRFRPPRLPRPRPRPISSPRP | -0.0616
RRIRARPPRLPRPRPRPGYFPRP | 0.212
RRIRHRPPRLPRPRPRPIPNPRP | 0.101
RRIRWRPPRLPRPRPRPHRQPRP | -0.165
RRIRWRPPRLPRPRPRPIPHPRP | 0.0496
